Test results as given in paper doi:10.1101/2024.04.30.591959.

Molecular target: T1, human propionyl-CoA carboxylase β subunit (human (endogenous in Expi 293F)), P05166
T1 chain: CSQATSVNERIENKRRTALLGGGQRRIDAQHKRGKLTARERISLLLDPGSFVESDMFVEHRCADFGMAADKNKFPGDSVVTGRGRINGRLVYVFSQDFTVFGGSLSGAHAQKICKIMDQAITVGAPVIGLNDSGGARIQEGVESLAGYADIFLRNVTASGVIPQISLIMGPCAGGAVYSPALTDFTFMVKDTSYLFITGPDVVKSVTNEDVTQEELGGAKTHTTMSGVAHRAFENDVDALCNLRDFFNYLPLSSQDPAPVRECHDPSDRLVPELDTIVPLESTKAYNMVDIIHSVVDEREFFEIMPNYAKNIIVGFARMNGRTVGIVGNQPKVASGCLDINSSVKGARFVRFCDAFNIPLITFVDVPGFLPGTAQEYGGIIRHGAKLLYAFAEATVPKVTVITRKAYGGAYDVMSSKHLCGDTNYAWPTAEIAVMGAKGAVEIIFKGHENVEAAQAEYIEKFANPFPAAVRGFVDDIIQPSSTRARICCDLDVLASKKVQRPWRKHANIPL
Test: cryo-EM structure
Details: remark: other sources report otherwise

stoichiometry N: 6
B1: human propionyl-CoA carboxylase β subunit, P05166 29-539 (natural protein)
chain: CSQATSVNERIENKRRTALLGGGQRRIDAQHKRGKLTARERISLLLDPGSFVESDMFVEHRCADFGMAADKNKFPGDSVVTGRGRINGRLVYVFSQDFTVFGGSLSGAHAQKICKIMDQAITVGAPVIGLNDSGGARIQEGVESLAGYADIFLRNVTASGVIPQISLIMGPCAGGAVYSPALTDFTFMVKDTSYLFITGPDVVKSVTNEDVTQEELGGAKTHTTMSGVAHRAFENDVDALCNLRDFFNYLPLSSQDPAPVRECHDPSDRLVPELDTIVPLESTKAYNMVDIIHSVVDEREFFEIMPNYAKNIIVGFARMNGRTVGIVGNQPKVASGCLDINSSVKGARFVRFCDAFNIPLITFVDVPGFLPGTAQEYGGIIRHGAKLLYAFAEATVPKVTVITRKAYGGAYDVMSSKHLCGDTNYAWPTAEIAVMGAKGAVEIIFKGHENVEAAQAEYIEKFANPFPAAVRGFVDDIIQPSSTRARICCDLDVLASKKVQRPWRKHANIPL
